Assay results taken from PMC4993541 (Cell Cycle, 2016).

Molecular target: FLAG-tagged full-length BRCA2 (human, UniProt P51587 1-3418)
Experiment: pull-down

FLAG-tagged full-length BRCA2, sequence (P51587 whole entry): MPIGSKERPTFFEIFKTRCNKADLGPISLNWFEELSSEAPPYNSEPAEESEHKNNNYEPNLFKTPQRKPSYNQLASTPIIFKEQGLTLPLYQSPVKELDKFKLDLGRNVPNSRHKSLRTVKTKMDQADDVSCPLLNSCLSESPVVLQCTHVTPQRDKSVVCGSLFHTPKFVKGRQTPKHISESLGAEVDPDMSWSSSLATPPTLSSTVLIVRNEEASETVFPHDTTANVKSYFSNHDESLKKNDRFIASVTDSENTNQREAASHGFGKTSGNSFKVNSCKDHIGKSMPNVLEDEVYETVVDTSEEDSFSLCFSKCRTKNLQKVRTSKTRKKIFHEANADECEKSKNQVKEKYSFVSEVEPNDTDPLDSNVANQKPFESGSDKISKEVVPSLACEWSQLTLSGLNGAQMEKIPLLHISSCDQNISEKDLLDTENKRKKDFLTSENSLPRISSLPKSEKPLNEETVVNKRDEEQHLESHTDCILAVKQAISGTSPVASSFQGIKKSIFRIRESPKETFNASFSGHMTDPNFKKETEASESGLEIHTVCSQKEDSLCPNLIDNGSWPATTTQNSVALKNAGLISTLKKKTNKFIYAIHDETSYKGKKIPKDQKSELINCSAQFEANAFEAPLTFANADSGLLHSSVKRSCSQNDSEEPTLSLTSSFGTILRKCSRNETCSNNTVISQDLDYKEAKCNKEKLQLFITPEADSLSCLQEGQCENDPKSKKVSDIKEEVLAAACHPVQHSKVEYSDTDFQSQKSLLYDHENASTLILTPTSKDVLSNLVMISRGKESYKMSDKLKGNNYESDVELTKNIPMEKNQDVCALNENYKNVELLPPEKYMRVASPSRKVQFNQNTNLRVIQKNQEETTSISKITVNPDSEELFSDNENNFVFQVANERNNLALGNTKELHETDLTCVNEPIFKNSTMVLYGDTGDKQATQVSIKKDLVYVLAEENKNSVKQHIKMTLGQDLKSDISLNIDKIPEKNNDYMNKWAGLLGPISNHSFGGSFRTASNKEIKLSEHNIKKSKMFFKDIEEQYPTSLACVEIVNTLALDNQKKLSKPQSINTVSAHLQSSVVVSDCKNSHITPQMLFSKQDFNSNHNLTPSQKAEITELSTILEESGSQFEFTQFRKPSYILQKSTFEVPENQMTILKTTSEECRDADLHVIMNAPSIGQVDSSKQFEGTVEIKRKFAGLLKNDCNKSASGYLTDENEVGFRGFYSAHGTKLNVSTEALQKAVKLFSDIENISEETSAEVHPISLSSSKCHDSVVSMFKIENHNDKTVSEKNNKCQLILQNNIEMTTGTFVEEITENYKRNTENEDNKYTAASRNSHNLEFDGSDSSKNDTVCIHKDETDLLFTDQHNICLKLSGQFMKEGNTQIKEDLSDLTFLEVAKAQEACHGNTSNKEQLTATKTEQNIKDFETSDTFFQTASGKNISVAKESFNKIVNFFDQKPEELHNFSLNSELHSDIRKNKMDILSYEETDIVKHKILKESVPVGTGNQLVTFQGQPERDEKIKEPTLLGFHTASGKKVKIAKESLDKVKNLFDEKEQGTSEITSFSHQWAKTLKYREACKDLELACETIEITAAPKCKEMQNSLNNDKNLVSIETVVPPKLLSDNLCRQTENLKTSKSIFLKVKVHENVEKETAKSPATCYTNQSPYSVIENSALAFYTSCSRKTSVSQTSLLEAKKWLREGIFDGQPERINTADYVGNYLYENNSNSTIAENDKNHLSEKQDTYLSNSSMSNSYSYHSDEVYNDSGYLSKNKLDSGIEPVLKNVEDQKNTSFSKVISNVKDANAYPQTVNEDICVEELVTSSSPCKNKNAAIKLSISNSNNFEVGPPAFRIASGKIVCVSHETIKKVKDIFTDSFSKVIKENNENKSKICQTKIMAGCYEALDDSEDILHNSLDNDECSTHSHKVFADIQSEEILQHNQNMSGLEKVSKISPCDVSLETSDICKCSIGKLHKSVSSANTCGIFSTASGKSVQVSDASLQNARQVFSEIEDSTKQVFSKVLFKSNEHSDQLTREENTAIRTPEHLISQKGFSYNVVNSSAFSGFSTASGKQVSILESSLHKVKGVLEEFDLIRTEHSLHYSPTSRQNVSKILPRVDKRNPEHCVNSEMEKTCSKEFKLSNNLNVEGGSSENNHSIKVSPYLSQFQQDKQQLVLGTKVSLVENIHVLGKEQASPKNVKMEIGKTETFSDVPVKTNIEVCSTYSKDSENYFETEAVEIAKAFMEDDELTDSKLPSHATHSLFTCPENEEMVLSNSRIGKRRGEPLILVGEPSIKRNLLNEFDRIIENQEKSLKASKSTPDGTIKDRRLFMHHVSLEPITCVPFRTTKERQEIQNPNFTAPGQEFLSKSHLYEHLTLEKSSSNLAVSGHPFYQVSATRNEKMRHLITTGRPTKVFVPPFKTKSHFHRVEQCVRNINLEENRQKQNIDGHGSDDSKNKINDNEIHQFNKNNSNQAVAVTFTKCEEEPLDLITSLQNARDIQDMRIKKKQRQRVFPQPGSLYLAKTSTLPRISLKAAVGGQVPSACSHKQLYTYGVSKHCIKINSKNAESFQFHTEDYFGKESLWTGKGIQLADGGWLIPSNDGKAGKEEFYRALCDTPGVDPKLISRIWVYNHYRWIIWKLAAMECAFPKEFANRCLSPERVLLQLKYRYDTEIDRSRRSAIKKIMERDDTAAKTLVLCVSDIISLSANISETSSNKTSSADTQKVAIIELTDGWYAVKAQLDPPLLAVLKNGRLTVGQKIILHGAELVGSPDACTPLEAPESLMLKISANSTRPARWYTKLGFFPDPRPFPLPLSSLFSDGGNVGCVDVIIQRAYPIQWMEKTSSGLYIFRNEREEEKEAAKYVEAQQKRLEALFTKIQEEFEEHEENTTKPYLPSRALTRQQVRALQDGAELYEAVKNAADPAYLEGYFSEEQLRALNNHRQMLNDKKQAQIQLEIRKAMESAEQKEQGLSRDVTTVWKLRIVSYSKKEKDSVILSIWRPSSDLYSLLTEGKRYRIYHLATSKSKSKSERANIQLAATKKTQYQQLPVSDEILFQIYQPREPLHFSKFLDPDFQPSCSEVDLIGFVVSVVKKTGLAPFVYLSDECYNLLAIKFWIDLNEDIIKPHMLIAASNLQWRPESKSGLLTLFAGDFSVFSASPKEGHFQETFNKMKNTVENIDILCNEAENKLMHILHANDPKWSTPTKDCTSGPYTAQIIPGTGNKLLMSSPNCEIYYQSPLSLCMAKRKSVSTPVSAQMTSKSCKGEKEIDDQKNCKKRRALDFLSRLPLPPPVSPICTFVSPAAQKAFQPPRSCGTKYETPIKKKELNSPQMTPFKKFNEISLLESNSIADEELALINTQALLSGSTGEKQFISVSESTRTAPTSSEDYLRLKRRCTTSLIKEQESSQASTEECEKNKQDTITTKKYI

B1: His-tagged full-length LIC2 (natural protein, human, UniProt O43237 1-492, looked up)
chain: MAPVGVEKKLLLGPNGPAVAAAGDLTSEEEEGQSLWSSILSEVSTRARSKLPSGKNILVFGEDGSGKTTLMTKLQGAEHGKKGRGLEYLYLSVHDEDRDDHTRCNVWILDGDLYHKGLLKFAVSAESLPETLVIFVADMSRPWTVMESLQKWASVLREHIDKMKIPPEKMRELERKFVKDFQDYMEPEEGCQGSPQRRGPLTSGSDEENVALPLGDNVLTHNLGIPVLVVCTKCDAVSVLEKEHDYRDEHLDFIQSHLRRFCLQYGAALIYTSVKEEKNLDLLYKYIVHKTYGFHFTTPALVVEKDAVFIPAGWDNEKKIAILHENFTTVKPEDAYEDFIVKPPVRKLVHDKELAAEDEQVFLMKQQSLLAKQPATPTRASESPARGPSGSPRTQGRGGPASVPSSSPGTSVKKPDPNIKNNAASEGVLASFFNSLLSKKTGSPGSPGAGGVQSTAKKSGQKTVLSNVQEELDRMTRKPDSMVTNSSTENEA
- binding result: binds
